Results published in US20180021429A1, “ANTICANCER AGENTS OR ANTIMETASTATIC AGENTS USING FSTL1 AND COMBINATION DRUG THEREOF” (PHARMA FOODS INTERNATIONAL CO., LTD., priority 2015, published 2018).
Where a chain is given by its changes, count along the chain named. Entries after “also recorded” stand apart in the source; their conditions may differ.

T1: FSTL1 (Homo sapiens, UniProt Q12841)
T1 sequence (Q12841 21-308): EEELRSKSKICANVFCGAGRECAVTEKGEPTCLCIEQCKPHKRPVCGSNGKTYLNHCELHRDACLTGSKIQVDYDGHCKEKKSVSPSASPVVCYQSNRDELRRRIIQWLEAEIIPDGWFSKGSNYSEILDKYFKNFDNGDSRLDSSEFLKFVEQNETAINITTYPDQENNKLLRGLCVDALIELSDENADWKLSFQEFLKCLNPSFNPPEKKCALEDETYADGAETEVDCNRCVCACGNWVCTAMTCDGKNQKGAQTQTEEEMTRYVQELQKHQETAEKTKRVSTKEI

T2: human FSTL1 (Homo sapiens, UniProt Q12841)
T2 construct: AAA linker + 10xHis (C); made in house; host or cells: Expi293 (transient expression; purified from culture supernatant on HisPur Cobalt Resin)
T2 sequence (Q12841 with tags, fused parts or gaps): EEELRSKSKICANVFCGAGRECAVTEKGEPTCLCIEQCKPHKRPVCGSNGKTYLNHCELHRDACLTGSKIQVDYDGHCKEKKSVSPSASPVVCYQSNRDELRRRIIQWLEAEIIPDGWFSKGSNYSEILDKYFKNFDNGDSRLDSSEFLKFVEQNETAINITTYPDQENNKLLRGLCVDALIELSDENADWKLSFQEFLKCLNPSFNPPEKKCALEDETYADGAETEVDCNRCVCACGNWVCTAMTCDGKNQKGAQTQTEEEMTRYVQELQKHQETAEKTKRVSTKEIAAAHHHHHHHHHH

B1: #6-55: chicken-mouse chimeric anti-FSTL1 antibody clone; variable regions SEQ ID NO: 783 (light), 785 (heavy) (antibody, V domains shown)
VH: AVTLDESGGGLQTPGGALSLVCKGSGFTFTSVTMQWVRQAPGKGLEWVASVCSGSSTYYAPAVKGRATISRDNGQSTVRLQLSNLRPEDTGTYYCAKIAGRARWSCTSAAYNIDAWGHGTEVIVSS
VL: ASTQPSSVSAIPGETVKITCSGGGNNYGWYQQRSPGSAPVTVIYYNDNRPSNIPSRFSGSTSGSTSTLTITGVQADDEAIYYCGSWDSNTDSGIFGAGTTLTVL
modifications: mouse constant regions
B2: #7-34: chicken-mouse chimeric anti-FSTL1 antibody clone; variable regions SEQ ID NO: 787 (light), 789 (heavy) (antibody, V domains shown)
VH: AVTLDESGGGLQTPGGGLSLVCKASGFTFSSVTMQWVRQAPGKGLEWVASICSGSSTYYGPAVKGRATISRDNGQNTVRLQLNNLRAEDTATYYCAKIVGRGRWSCTSAAYNIDAWGHGTEVIVSS
VL: B1 VL with I11N, R33K, D47N, D76E, I80V, W86Y, D87E, S88G, N89S
modifications: mouse constant regions
B3: #33: chicken-mouse chimeric anti-FSTL1 antibody clone; variable regions SEQ ID NO: 823 (light), 825 (heavy) (antibody, V domains shown)
VH: AVTLDESGGGLQTPGGGLSLVCKASGFTFSSFNMNWVRQAPGKGLEYVAEISGTGSSTYYGSAVKGRATISRDNGQSTVRLQLNNLRAEDTATYFCARGDGAYSIDAWGHGTEVIVSS
VL: ASTQPSSVSANPGETVEITCSGDSSYYGWFQQKSPGSAPVTVIYDNTNRPSDIPSRFSGSKSGSTATLTITGVRAEDEAVYYCGGYDSSTYDGIFGAGTTLTVL
modifications: mouse constant regions
B4: #5-8: chicken-mouse chimeric anti-FSTL1 antibody clone; variable regions SEQ ID NO: 771 (light), 773 (heavy) (antibody, V domains shown)
VH: AVTLDESGGGLQTPGGGLSLVCKGSGFTFSSFNMFWVRQAPGKGLEWVAGIGKDGVPKYGTAVDGRATISKDNGQSTMRLQLNNLRAEDTGTYFCAKAAGGCSYDWCGIYTGDIDTWGHGTEVIVSS
VL: ASTQPSSVSANPGEAVKITCSGGSGSYYGWYQQKSPGSAPVTVIYNNNQRPSDIPSRFSGSKSGSTATLTITGVQAEDEAVYFCGGYDSSTGHGGIFGAGTTLTVL
modifications: mouse constant regions
B5: #8-1: chicken-mouse chimeric anti-FSTL1 antibody clone; variable regions SEQ ID NO: 791 (light), 793 (heavy) (antibody, V domains shown)
VH: B4 VH with G17A, T61A, T111A
VL: B4 VL with T91S
modifications: mouse constant regions

Key:
[1] = molecular target: T1, FSTL1; experiment: Inhibition of activation of tumor cells by FSTL1, RANKL- and CCR2-positive cells in human pancreatic cancer cell line Panc1 (Examples 5, 7, 9, 10, 11); assay type: cell-based; design: purchased R&D Systems, Inc. 1694-FN-050; conditions: Example 9; FSTL1 20 ng/mL, antibody 10 μg/mL, 3 days
[2] = tested on: GFP-positive and Snail-positive B16-F10 tumor cells; experiment: In vivo, intraperitoneal administration, Snail-positive B16-F10 bone metastasis model (Example 18); design: species or system mouse; conditions: intraperitoneal 10 mg/kg on days 5 and 10; day 14
Text: 1. Experiment Group (n=5) • 1. No treatment (0.9% NaCl as a sham) • 2. Control IgG (anti-DNP) • 3. Anti-FSTL1 Clone #6-55 • 4. Anti-FSTL1 Clone #7-34 • 5. Anti-FSTL1 Clone #8-1 […]
• Effects on the growth of subcutaneous tumor (calculation of tumor volume by tumor size measurement): measured 7, 11, and 14 days after tumor implantation (FIG. 42B) • Effects on bone metastasis (GFP-positive tumor cells in bone marrow or the spleen) (FIGS. 42A and 42C) • Effects on MSC expansion (CD45-negative cells in bone marrow or the spleen) (FIGS. 42A and 42C) • Effects on weight loss (FIG. 42A) • Effects on the expansion of immunosuppressive Treg cells (CD4-positive and Foxp3-positive cells in the spleen) (FIG. 42C) • Other immunosuppressive properties (FIG. 42C)
In Example 17, the antibody was administered into tumor according to the purpose of “inhibiting metastasis from a primary focus to bone” as previously conducted by the present inventors. […] Specifically, antitumor effects and immunosuppression-mitigating effects were comparatively analyzed by the intraperitoneal administration (systemic administration) of the anti-FSTL1 antibody using bone metastasis models in which mouse melanoma cells (B16-F10) forced to express Snail were subcutaneously and intravenously transplanted in C57BL/6N mice. […]

[3] = tested on: GFP+F10-snail+ tumor cells; experiment: In vivo drug efficacy of each anti-FSTL1 antibody clone, GFP+F10-snail+ tumor model (Example 32); design: species or system mouse; conditions: intraperitoneal 10 mg/kg on days 4 and 7; vs control antibody
Procedure: (§1) • Day 0: transplantation of GFP+F10-snail+ tumor cells (3×10^5 cells subcutaneously & 2×10^4 cells intravenously) • Day 4: intraperitoneal administration of the antibody (first dose, 10 mg/kg) • Day 7: intraperitoneal administration of the antibody (second dose, 10 mg/kg)
(§2) Subcutaneous tumor was measured 4, 7, 10, 14, 17, 20, and 23 days after tumor cell transplantation.
Experiment Group (n=5) Control IgG (anti-DNP mAb) • #6-55 • #7 • #10 • #13 • #33
• Day 0: transplantation of GFP+F10-snail+ tumor cells (3×10^5, cells subcutaneously & 2×10^4 cells intravenously) • Day 4: intraperitoneal administration of the antibody (first dose, 10 mg/kg) • Day 7: intraperitoneal administration of the antibody (second dose, 10 mg/kg)

[4] = molecular target: T2, human FSTL1; experiment: ELISA binding activity of purified antibody against human FSTL1; conditions: FIG. 95B
Procedure: (§3) The reactivity of the obtained antibody clones described above with FSTL1 was evaluated by ELISA under the following conditions.
(Table 2 ELISA Conditions for Binding Activity Evaluation of Purified Antibody)
(§4) Antibodies used: anti-dinitrophenyl (DNP) antibody (negative control), #5-2, #5-3, #5-8, #5-10, #5-43, #6-55, and #7-34
FIGS. 96 and 97 show results of evaluating binding activity under the condition of Table 3 as to clones differing in screening and antibody purification timings.
(Table 3 ELISA Conditions for Binding Activity Evaluation of Purified Antibody)

[5] = molecular target: T2, human FSTL1; experiment: ELISA binding activity of purified antibody against human FSTL1 (Example 2); conditions: FIG. 1B/31B
Procedure: as §3
(Table 2 ELISA conditions for binding activity evaluation of purified antibody) Antibodies used: anti-dinitrophenyl (DNP) antibody (negative control), #5-2, #5-3, #5-8, #5-10, #5-43, #6-55, and #7-34
FIGS. 2 and 3 show results of evaluating binding activity under the condition of Table 3 as to clones differing in screening and antibody purification timings.
as §4
FIGS. 32 and 33 show results of evaluating binding activity under the condition of Table 3 as to clones differing in screening and antibody purification timings.

[6] = tested on: GFP+F10-snail+ tumor cells; experiment: In vivo drug efficacy of each anti-FSTL1 antibody clone, GFP+F10-snail+ tumor model (Example 32); design: species or system mouse; conditions: intraperitoneal 10 mg/kg on days 4 and 7; for mouse survival period (life-prolonging effect): FIG. 121
Procedure: as §1, §2

Molecule | inhibitory activity against the expansion of RANKL-positive cells and CCR2-positive cells [1] | effect on weight loss (mouse body weight) [2] | mouse survival period (life-prolonging effect) [3] | binding activity against human FSTL1 [5] | mouse survival period (life-prolonging effect) [6] | other results
B1 | higher inhibitory activity; also recorded: exhibited inhibitory activity | anti-weight loss effect | statistically significant life-prolonging effect | specific and equivalently strong binding activity | statistically significant life-prolonging effect | suppressive activity against subcutaneous tumor growth [3]: statistically significant suppressive activity; binding activity against human FSTL1 [4]: specific and equivalently strong binding activity; suppressive activity against subcutaneous tumor growth ([6]; vs control antibody group, FIG. 120): statistically significant suppressive activity
B2 | – | – | – | specific and equivalently strong binding activity | – | –
B3 | – | – | therapeutic effects equal to or higher than those of #6-55 | – | therapeutic effects equal to or higher than those of #6-55 | –
B4 | higher inhibitory activity; also recorded: exhibited inhibitory activity | – | – | – | – | –
B5 | – | anti-weight loss effect | – | – | – | –
